Tests used:
[1] = target: HIV-1 Gag (Pr55), immature Gag lattice of NL4-3 VLPs (HIV-1 (NL4-3)); settings: scale: mol HA-Halo-gt-EnvCT/mol NL4-3
[2] = target: HIV-1 Gag (Pr55), immature Gag lattice of NL4-3 VLPs (HIV-1 (NL4-3))
[3] = target: HIV-1 Gag (Pr55), immature Gag lattice of NL4-3 VLPs (HIV-1 (NL4-3)); experiment: co-sedimentation; immature VLPs from HEK293T stripped of membrane with 0.05% NP-40 (Env trimers) or 0.075% NP-40 (mCD4 chimeras) or PBS, 15 minutes at 25°C, sedimented through 20% sucrose at 60,000 x g, 4°C, 1 hour; pellets blotted for gp41, CD4 and Pr55
[4] = target: HIV-1 Gag (Pr55), immature Gag lattice of NL4-3 VLPs (HIV-1 (NL4-3)); remark: listed apart in the source

Substance: HA-Halo-gt-EnvCT (712YA) chimera
- restriction of the incorporation of Env-712YA trimers into VLPs (gp41/Pr55 by western blot; HEK293T co-transfected with chimera and NL4-3 pol(-) Env-712YA plasmids at 0 to 1.375 mol/mol) [1]: 0.3
- double exponential loss curve of the competitive inhibition of 712YA Env incorporation into VLPs; half-maximal inhibition [2]: 0.6 gp41/Pr55

Substance: HIV-1 WT Env (NL4-3), gp120/gp41 trimer (complex)
- percent co-sedimenting with Gag after detergent [3]: 10%

Substance: monomeric CD4-EnvCT 712YA chimera (from UniProt P01730 26-420)
- incorporation into VLPs released from transduced A2.01 T cells (western blot), mCD4-EnvCT relative to mCD4-ΔCT [4]: 16.7 fold

— article PMC12090761
